No end group written: not given here. *: point of attachment. SO3 = O=S(=O)(O)*
Assays:
intrinsic tenase = intrinsic tenase (Homo sapiens, UniProt P00451+P00740); experiment: Inhibition of intrinsic tenase; format: biochemical; settings: FIG. 11A
Excerpt: FIG. 11A illustrates inhibition of intrinsic tenase by the double sulfonated peptide DYDYQ (1, 2) (SEQ ID NO. 9). […] As is shown in FIG. 11A, as the concentration of DYDYQ (1, 2) is increased, the reduction in activity is dramatic.
FIG. 11B and its insert panel illustrate the effect of increasing concentration of the peptide DYDYQ (1, 2) (SEQ ID NO. 9) upon the reaction kinetics of intrinsic tenase. Specifically, this figure illustrates the kinetics of inhibition of intrinsic tenase in the presence of the double sulfonated peptide DYDYQ (1, 2). In FIG. 11B, the data are plotted as Vo (initial velocity in arbitrary units) as a function of increasing factor X concentration in the presence of increasing concentration of DYDYQ (1, 2). The concentrations of DYDYDQ (1, 2), in addition with factor VIIIa, are 10 nM (filled triangles), 25 nM (filled diamonds), and 50 nM (filled circles). Control curves of factors VIIIa and IXa (filled squares) and factor IXa (inverted triangles) are also noted. The insert panel of FIG. 11B is presented for greater clarity and details the region of factor X concentration up to 300 nM, and without the curve of 50 nM of DYDYQ (1, 2).

thrombin [1] = biological target: T1, thrombin (Homo sapiens, UniProt P00734); experiment: Activation of plasma factor V by thrombin preincubated with peptide (SDS-PAGE, immunoblotting); format: biochemical; design: Factor Xa cleaves prothrombin to form thrombin; purchased Haematologic Technologies Inc. (Essex Junction, Vt.); settings: FIG. 9B
Description: Gel Electrophoresis and western blotting. Sodium dodecyl sulfate polyacrylamide gel electrophoresis (SDS-PAGE) analyses were performed using 4-12% gradient gels according to the method of Laemmli. In several experiments, proteins were transferred to polyvinylidene difluoride (PVDF) membranes according to the method described by Towbin et al. After transfer to nitrocellulose, factor V heavy and light chain(s) were detected using the appropriate monoclonal and polyclonal antibodies. Immunoreactive fragments were visualized with chemiluminescence.
Factor V (250 nM) was incubated with thrombin (1 nM). And FIG. 4B illustrates thrombin (1 nM) was preincubated with 100 μM peptide DYDYQ and the mixture was added to factor V (250 nM). […] Fragments were identified following staining with monoclonal antibody αHFV#17 that recognizes an epitope between amino acid residues 307-506 of factor V and chemiluminescence as described. Lane 1 in both panels depicts aliquots of the mixture withdrawn from the reaction before the addition of thrombin or thrombin/peptide mixture while lanes 2-7 show aliquots of the reaction mixture withdrawn at 30 sec, 1 min, 3 min, 5 min, 10 min, 15 min following the addition of thrombin alone or of thrombin/peptide mixture. The time of incubation is shown at the bottom of the figure. Position of the molecular weight markers is indicated at left.

[2] = Clotting time as a function of peptide concentration (FIG. 12); settings: peptide 500 nM
Excerpt: FIG. 12 is a graph illustrating clotting time as a function of concentration of various peptides of interest as follows: DYDYQ (SEQ ID NO. 11) (filled squares); DYDYQ (1, 2) (or as designated in shorthand form, D5Q1,2) (SEQ ID NO. 9) (filled triangles); DYDYQ-1 (SEQ ID NO. 7) (filled inverted triangles); and DYDYQ-2 (SEQ ID NO. 8) (filled diamonds).

thrombin [3] = biological target: T1, thrombin; experiment: Inhibition of activation of factor VIII by thrombin (SDS-PAGE); format: biochemical; design: Factor Xa cleaves prothrombin to form thrombin; settings: FIG. 9A
Excerpt: Specifically, FIG. 9A illustrates the inhibition of activation of factor VIII by thrombin, the inhibition resulting from the double sulfonated peptide DYDYQ (1, 2) (SEQ ID NO. 9) binding to thrombin. FIG. 9B illustrates the inhibition of activation of factor V by thrombin, the inhibition resulting from the double sulfonated peptide DYDYQ (1, 2) (SEQ ID NO. 9) binding to thrombin. FIGS. 9A and 9B result from analysis by SDS-PAGE as previously described with regard to FIG. 4(A and B). […] The various fragments of each factor are noted on the right hand side of each figure.

prothrombinase = biological target: T2, prothrombinase (Homo sapiens, UniProt P00734); experiment: Assay measuring thrombin formation (prothrombinase inhibition by peptides, DAPA fluorescence); format: biochemical
T2 construct: purchased Haematologic Technologies Inc. (Essex Junction, Vt.)
Description: Assay measuring thrombin formation. The formation of thrombin was analyzed using the fluorescent thrombin inhibitor DAPA as described using a Perkin Elmer LS-50B Luminescence Spectrometer (Perkin-Elmer LLC, Norwalk Conn.) with λex=280 nm, λem=550 nm and a 500 nm long pass filter in the emission beam (Schott KV-500). […] In all cases peptides were preincubated with factor tor Va prior to the assay as described in the legend to the figures. The final concentration of factor tor Va in the mixture was 4 nM with factor Xa at 10 nM, prothrombin at 350 nM, DAPA at 700 nM, in the presence of PCPS vesicles (10 μM). The initial rate of thrombin formation (nM IIa·min^−1) was calculated as described during the initial 5-10 sec of the reaction. To verify if the peptides have any effect on the active-site of thrombin, control experiments were performed as follows: a given peptide (at 100 μM) was incubated in the assay buffer containing DAPA (700 nM); the base line was monitored for 30 sec; thrombin (350 nM) was then added to the mixture and the fluorescent intensity resulting from the complexation of DAPA with the active site of thrombin was monitored for 60 sec. The slope of the reaction measuring thrombin formation in the presence of a given peptide during the first 5 sec was calculated and compared to the slope of a reaction obtained in the absence of peptide. It is noteworthy that under the conditions employed the thrombin-DAPA interaction occurred fast and the calculated slope of the reaction was sensitive to all parameters used. […] All experiments were performed in triplicates or as indicated. The concentration of each peptide given in the figures and figure legends is their final concentration in the assay. […] In some cases the data were also analyzed and plotted using DeltaGraph (DeltaPoint, Monterey, Calif.).
Specifically, peptides were incubated with factor tor Va as described herein at a fixed concentration (100 μM). The percent of factor tor Va cofactor activity was calculated by comparing the activity of prothrombinase in the presence of a given peptide to the activity of prothrombinase determined in a control reaction in the absence of peptide and in the presence of factor Xa. […] The control peptide represents a pentadecapeptide from the middle portion of factor tor Va heavy chain (P15H) (SEQ ID NO. 22). […] All other peptides from region 680-709 had no significant effect on prothrombinase activity.
HC3 represents amino acid sequence 690-699 of factor tor Va heavy chain; HC4 contains the sequence 695-704 of human factor tor Va heavy chain; P15H represents amino acid sequence 337-351 from the middle portion of human factor tor Va heavy chain. […] The concentration of each peptide given on the x axis represents its final concentration in the prothrombinase mixture. […] Thus, both peptides show similar inhibitory potential.

intrinsic tenase, sequence (P00740 227-461 limits assumed): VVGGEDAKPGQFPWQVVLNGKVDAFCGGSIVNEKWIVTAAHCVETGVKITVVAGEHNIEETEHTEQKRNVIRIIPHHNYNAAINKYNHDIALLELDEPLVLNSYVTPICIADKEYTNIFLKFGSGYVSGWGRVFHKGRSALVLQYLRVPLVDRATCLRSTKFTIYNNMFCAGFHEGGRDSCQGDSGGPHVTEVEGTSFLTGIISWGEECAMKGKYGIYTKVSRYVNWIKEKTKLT
intrinsic tenase, sequence (P00451 1709-2351 limits assumed): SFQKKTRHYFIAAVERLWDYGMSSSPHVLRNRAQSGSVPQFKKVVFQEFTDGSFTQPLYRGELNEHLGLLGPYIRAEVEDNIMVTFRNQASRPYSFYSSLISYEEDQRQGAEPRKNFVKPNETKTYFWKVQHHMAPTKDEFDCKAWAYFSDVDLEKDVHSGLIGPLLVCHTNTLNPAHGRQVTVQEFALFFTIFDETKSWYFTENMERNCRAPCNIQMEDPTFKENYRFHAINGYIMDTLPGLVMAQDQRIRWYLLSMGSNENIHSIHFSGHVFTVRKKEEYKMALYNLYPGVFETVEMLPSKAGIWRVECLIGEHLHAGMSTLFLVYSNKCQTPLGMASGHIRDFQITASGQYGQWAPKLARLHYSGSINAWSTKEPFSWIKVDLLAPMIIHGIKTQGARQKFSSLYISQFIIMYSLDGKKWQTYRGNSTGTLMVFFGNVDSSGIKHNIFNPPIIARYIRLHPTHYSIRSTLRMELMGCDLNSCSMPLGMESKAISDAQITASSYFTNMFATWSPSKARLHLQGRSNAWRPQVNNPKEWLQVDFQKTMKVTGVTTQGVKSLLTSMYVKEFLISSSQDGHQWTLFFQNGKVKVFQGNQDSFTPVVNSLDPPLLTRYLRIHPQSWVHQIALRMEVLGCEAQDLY

inhibition of intrinsic tenase (intrinsic tenase): dramatic reduction | inhibition of activation of factor V by thrombin (thrombin [1]): potent inhibitor | inhibition of activation of factor VIII by thrombin (thrombin [3]): potent inhibitor | rank of inhibitory effect on prothrombinase among peptides (prothrombinase; FIG. 10A): greatest inhibitory effect | inhibition of prothrombinase activity with increasing peptide (prothrombinase; FIG. 10A, up to 8000 nM): significant inhibitory effects | type of inhibition of prothrombinase with respect to prothrombin (prothrombinase; kinetic analyses, increasing prothrombin and peptide): competitive inhibition mechanism
Substance: DY(—SO3)DY(−SO3)Q (DY(SO3)DY(SO3)Q) [DYDYQ-1,2, double sulfonated peptide DYDYQ]
clotting time [2]: relatively long clotting times | rank of clotting time among peptides [2]: longest clotting time

From patent US20100267638A1, “EXOSITE-DIRECTED THROMBIN INHIBITORS” (CLEVELAND STATE UNIVERSITY, priority 2003, published 2010)
